Measured values: patent US20220143136A1, “USE OF ANNEXINS IN PREVENTING AND TREATING MUSCLE MEMBRANE INJURY” (NORTHWESTERN UNIVERSITY, priority 2018, published 2022)
“Also recorded” adds a separate entry of the source.

Tests used:
[1] = tested on: dysferlin-null (Dysf129) myofibers; assay: Laser-induced membrane injury, FM 4-64 dye uptake, dysferlin-null myofibers; type: cell-based, mouse; details: LGMD2B model
Procedure: Myofiber isolation. Flexor digitorum brevis (FDB) fibers were isolated with methods that were described previously in (Demonbreun and McNally, 2015; Demonbreun et al., 2016b; DiFranco et al., 2009). Briefly, fibers were dissociated in 0.2% BSA plus collagenase type II (Cat #17101, Thermo Fisher Scientific, Waltham, Mass.) for 60 minutes at 37 degrees in 10% CO2. Fibers were then moved to Ringers solution and placed on MatTek confocal microscopy dishes (Cat #P35G-1.5-14-C, MatTek, Ashland Mass.).
Multiphoton laser injury and imaging. Isolated fibers were subjected to laser-induced damage at room temperature using the Nikon A1R-MP multiphoton microscope. Imaging was performed using a 25×1.1 NA objective directed by the NIS-Elements AR imaging software. Green fluorescence protein (GFP) and FM 4-64 were excited using a 920 nm wavelength laser and emission wavelengths of 575 nm and 629 nm were collected respectively. […] Fluorescence intensity and cap area were measured using Fiji (NIH).
For recombinant protein studies, myofibers were isolated from mice as described above. […] Cap size was assessed from acquired images in FIJI. […] Images were acquired and quantitated as described above. FM 4-64 fluorescence at endpoint was measured using FIJI.

[2] = tested on: wildtype myofibers; assay: Laser-induced membrane injury, FM 4-64 dye uptake; type: cell-based, mouse; details: for FM 4-64 fluorescence area / dye uptake after laser injury: extracellular recombinant protein vs vehicle control
[3] = tested on: tibialis anterior muscles of wildtype mice; assay: Cardiotoxin injection and histology 7 days post injury; type: in vivo, mouse; details: 1 mg/kg retro-orbital 2 hours before cardiotoxin, vs BSA control
Procedure: Cardiotoxin injection and histology. […] Two hours post injection mice were sedated for a second time. While sedated the tibialis anterior muscles were injected along the midline with 10 μm cardiotoxin in 20 ul of PBS as described above. Seven days post injection, the muscle was isolated and frozen. Muscle sections were acquired every 100 μm from muscle tendon into the mid belly, fixed and stained with hematoxylin and eosin. Imaging was performed using a Zeiss Axio Observer A1 microscope (Zeiss, Oberkochen, Germany), using a 10× objective. ZEN software (Zeiss, Jena, Germany) was used for acquiring tiled images. Percent injury area was calculated as the average injured area (containing internal myonuclei) divided by total muscle area of 3 sections per muscle. One muscle from each group was excluded due to technical error in tissue processing. Damage area was measured using FIJI (NIH).

[4] = tested on: tibialis anterior muscles of wildtype mice; assay: Cardiotoxin injury, intramuscular recombinant annexin A6, Evan's blue dye uptake; type: in vivo, mouse; details: for decrease in Evan's blue dye uptake (fluorescence over muscle area): 25 μg/ml intramuscular 2 hours before cardiotoxin, harvested 3 hours post injury, vs control muscle; for cardiotoxin-induced muscle damage, dye uptake by gross imaging: intramuscular pretreatment vs control
Procedure: Cardiotoxin Injury and analysis. […] Additionally, mice were injected intraperitoneally with Evans' blue dye at 5 μl/g body weight (E-2129; Sigma-Aldrich, St. Louis, Mo.) dissolved in phosphate-buffered saline at 10 mg/mL. […] Cardiotoxin injury was performed injecting 20 μl of a 10 μM cardiotoxin (discontinued, Sigma-Aldrich) solution in PBS in tibialis muscles in sedated animals (3% isoflurane, 0.8 l/min O2) 2 hours post pretreatment. Cardiotoxin was released down the midline of the muscle to induce a homogenous area of injury at the center of the muscle. 3 hours post cardiotoxin injection muscle was harvested and frozen in liquid nitrogen.
Immunofluorescence microscopy. Sections (10 μm thick) from the center of frozen-embedded muscles were collected on the cryostat (chamber, −20° C.; sample, −15° C.; catalog number CM1950; Leica, Wetzlar, Germany) for immunostaining. Tissues were fixed with 4% paraformaldehyde for 10 minutes on ice. Block and permeabilization were with 0.1% Triton (catalog number X-100; Sigma-Aldrich), 10% fetal bovine serum, and PBS for 60 minutes. For dystrophin detection, anti-dystrophin (ab15277; Abcam, Cambridge, Mass.) was used at a dilution of 1:100 overnight at 4° C. Sections were PBS rinsed, incubated with secondary antibody goat anti rabbit (A11008, Invitrogen) for 1 hour, PBS rinsed, and mounted in vectashield with DAPI (H-1200, Vector Laboratories). Imaging was performed using a Zeiss Axio Observer A1 microscope (Zeiss, Oberkochen, Germany), using a 10× objective. ZEN software (Zeiss, Jena, Germany) was used for acquiring images. Fluorescence quantitation and muscle area were performed using FIJI (NIH). Surface plots were created in FIJI (NIH). Fluorescence volume was quantified using Imaris Software v9.1.2.
Cardiotoxin Injury and analysis. […] Additionally, mice were injected with Evans' blue dye at 5 μl/g body weight (E-2129; Sigma-Aldrich, St. Louis, Mo.) dissolved in phosphate-buffered saline at 10 mg/mL cardiotoxin injury was performed injecting 20 μl of a 10 μM cardiotoxin solution in PBS in tibialis anterior or gastroc/soleus muscles in sedated animals (3% isoflurane, 0.8 l/min O2) 2 hours post pretreatment. Cardiotoxin was released down the midline of the muscle to induce a homogenous area of injury at the center of the muscle. 3 hours post cardiotoxin injection muscle was harvested.
Evans blue dye uptake. […] Fluorescence quantitation, surface plots, and muscle area were performed using FIJI (NIH). For whole tissue dye quantification, whole tissue was dissected, finely minced, weighed, and incubated at 55° C. in 1 mL of formamide for 2 hours. Spectrophotometric absorbance was measured at 620 nm.

B1: annexin A6: annexin A6 with carboxyl-terminal turboGFP or tdTomato tag, expressed from plasmid electroporated into myofibers (protein, UniProt P14824 2-673, looked up)
Annexin A6: AKIAQGAMYRGSVHDFPEFDANQDAEALYTAMKGFGSDKESILELITSRSNKQRQEICQNYKSLYGKDLIEDLKYELTGKFERLIVNLMRPLAYCDAKEIKDAISGVGTDEKCLIEILASRTNEQMHQLVAAYKDAYERDLESDIIGDTSGHFQKMLVVLLQGTRENDDVVSEDLVQQDVQDLYEAGELKWGTDEAQFIYILGNRSKQHLRLVFDEYLKTTGKPIEASIRGELSGDFEKLMLAVVKCIRSTPEYFAERLFKAMKGLGTRDNTLIRIMVSRSELDMLDIREIFRTKYEKSLYSMIKNDTSGEYKKALLKLCGGDDDAAGQFFPEAAQVAYQMWELSAVSRVELKGTVCAANDFNPDADAKALRKAMKGIGTDEATIIDIVTHRSNAQRQQIRQTFKSHFGRDLMADLKSEISGDLARLILGLMMPPAHYDAKQLKKAMEGAGTDEKTLIEILATRTNAEIRAINEAYKEDYHKSLEDALSSDTSGHFRRILISLATGNREEGGENRDQAQEDAQVAAEILEIADTPSGDKTSLETRFMTVLCTRSYPHLRRVFQEFIKKTNYDIEHVIKKEMSGDVKDAFVAIVQSVKNKPLFFADKLYKSMKGAGTDEKTLTRVMVSRSEIDLLNIRREFIEKYDKSLHQAIEGDTSGDFMKALLALCGGED
modifications: C-terminal turboGFP or tdTomato tag
notes: annexin A6 with carboxyl-terminal turboGFP or tdTomato tag, expressed from plasmid electroporated into myofibers
- FM 4-64 dye uptake after laser injury ([1]; plasmid overexpression of annexin A6 vs control): significant reduction; also recorded: reduced
- FM 4-64 dye uptake after laser-induced injury ([2]; plasmid overexpression of annexin A6-GFP vs mock electroporated control): decreased; also recorded: reduced

B2: recombinant annexin A6: recombinant human annexin A6 protein with C-terminal HIS tag (5186-A6-050, R&D systems); mouse protein from Northwestern core in one cohort (protein, UniProt P08133 2-673, looked up)
Annexin A6: AKPAQGAKYRGSIHDFPGFDPNQDAEALYTAMKGFGSDKEAILDIITSRSNRQRQEVCQSYKSLYGKDLIADLKYELTGKFERLIVGLMRPPAYCDAKEIKDAISGIGTDEKCLIEILASRTNEQMHQLVAAYKDAYERDLEADIIGDTSGHFQKMLVVLLQGTREEDDVVSEDLVQQDVQDLYEAGELKWGTDEAQFIYILGNRSKQHLRLVFDEYLKTTGKPIEASIRGELSGDFEKLMLAVVKCIRSTPEYFAERLFKAMKGLGTRDNTLIRIMVSRSELDMLDIREIFRTKYEKSLYSMIKNDTSGEYKKTLLKLSGGDDDAAGQFFPEAAQVAYQMWELSAVARVELKGTVRPANDFNPDADAKALRKAMKGLGTDEDTIIDIITHRSNVQRQQIRQTFKSHFGRDLMTDLKSEISGDLARLILGLMMPPAHYDAKQLKKAMEGAGTDEKALIEILATRTNAEIRAINEAYKEDYHKSLEDALSSDTSGHFRRILISLATGHREEGGENLDQAREDAQVAAEILEIADTPSGDKTSLETRFMTILCTRSYPHLRRVFQEFIKMTNYDVEHTIKKEMSGDVRDAFVAIVQSVKNKPLFFADKLYKSMKGAGTDEKTLTRIMVSRSEIDLLNIRREFIEKYDKSLHQAIEGDTSGDFLKALLALCGGED
modifications: C-terminal His tag
notes: recombinant human annexin A6 protein with C-terminal HIS tag (5186-A6-050, R&D systems); mouse protein from Northwestern core in one cohort
- FM 4-64 fluorescence area after laser injury ([1]; extracellular recombinant protein vs vehicle control): reduced; also recorded: decreased
- FM 4-64 fluorescence area / dye uptake after laser injury [2]: reduced
- FM 4-64 fluorescence area / dye uptake after laser injury ([2]; listed as rANXA6): significantly smaller; also recorded: significantly less
- percentage of injured muscle (internal myonuclei), histology [3]: reduced
- percentage of injured muscle (internal myonuclei), histology ([3]; listed as rANXA6): reduction
- decrease in Evan's blue dye uptake (fluorescence over muscle area) [4]: 50%
- decrease in Evan's blue dye uptake (fluorescence over muscle area) ([4]; listed as rANXA6): approximately 50%
- cardiotoxin-induced muscle damage, dye uptake by gross imaging [4]: reduced
- cardiotoxin-induced muscle damage, dye uptake by gross imaging ([4]; listed as rANXA6): decreased
